From US20130295102A1 (Novartis, published 2013)

How the values were obtained:
Human Factor P [1] = biological target: T1, Human Factor P (human, UniProt P27918 29-469); test: cell-based or functional assay
Cynomolgus Factor P [2] = biological target: Cynomolgus Factor P (cynomolgus); test: cell-based or functional assay
Human Factor P [3] = biological target: T1, Human Factor P; test: SET, solution equilibrium titration
Description: (§1) In SET, a constant amount of antibody is incubated with different concentrations of antigen until equilibrium is reached. The concentration of free antibody in the equilibrated solution is determined by applying the solution on an antigen coated MSD™ plate (Meso Scale Discovery™) followed by incubation with an ECL-labeled secondary antibody and measurement of signal intensity. At low antigen concentrations, a strong signal is achieved (high concentration of free antibody which binds to the antigen on the plate) whereas for high antigen concentration, the antibody is completely antigen-captured, resulting in a low signal. If a sufficient number of antigen concentrations in a matching range are available, the titration curve allows for a reasonable determination of the affinity, using the appropriate fit model. […] The constant concentration of antibody applied in the assay should be in the range of, or below, the KD (Table 4).
(§2) Human Factor P (Complement Technology cat#: A139) and Cyno Factor P purified from cyno serum (protocol adapted from Nakano, et al., (1986) J Immunol Methods 90:77-83) were coated on standard binding MSD plates (Meso-Scale Discovery, 384-well: MSD cat#: L21XA, 96-well: MSD cat#: L15XA) at 0.2-0.3 μg/ml in 25 μl PBS and incubated overnight at 4° C. Factor P inhibitors were diluted to a fixed concentration (1 pM or 10 pM) in incubation buffer (PBS with 2% BSA (Sigma cat#: A4503) and 1% Tween20 and 1% Triton-X (Sigma cat#: 234729)), and added to a serial dilution of Factor P (human or cyno) in incubation buffer. Samples were allowed to reach equilibrium by incubation at RT overnight. Plates were washed 3× in wash buffer (PBS with 0.05% Tween20), and blocked with 100 μl incubation buffer at RT for 2 hrs. Plates were washed 3× in wash buffer. Sample containing Factor P inhibitors and Factor P titration were added to the plate (25 μl), and incubated at RT for 15 min. Plates were washed 3× in wash buffer. 25 μl detection antibody was added (Anti-Human (Goat) Sulfo-TAG, 1:1000 in incubation buffer, MSD cat#: R32AJ-1), and incubated at RT for 60 min. Plates were washed 3× in wash buffer, and 50 μl of 1×MSD Read buffer T was added (with surfactant, MSD cat#: R92TC-1). Plates were read on a MSD Spector Imager 6000.

Cynomolgus Factor P [4] = biological target: T2, Cynomolgus Factor P (cynomolgus); test: SET, solution equilibrium titration
T2 construct: Purified from cynomolgus serum for SET/Biacore; Factor P of cynomolgus serum in the functional assays; also called Cyno Factor P; cyno FP
Description: as §1, §2

Human Factor P [5] = biological target: T1, Human Factor P; test: Biacore SPR, captured Factor P
Cynomolgus Factor P [6] = biological target: T2, Cynomolgus Factor P; test: Biacore SPR, captured Factor P

T1 sequence (P27918 29-469 limits assumed): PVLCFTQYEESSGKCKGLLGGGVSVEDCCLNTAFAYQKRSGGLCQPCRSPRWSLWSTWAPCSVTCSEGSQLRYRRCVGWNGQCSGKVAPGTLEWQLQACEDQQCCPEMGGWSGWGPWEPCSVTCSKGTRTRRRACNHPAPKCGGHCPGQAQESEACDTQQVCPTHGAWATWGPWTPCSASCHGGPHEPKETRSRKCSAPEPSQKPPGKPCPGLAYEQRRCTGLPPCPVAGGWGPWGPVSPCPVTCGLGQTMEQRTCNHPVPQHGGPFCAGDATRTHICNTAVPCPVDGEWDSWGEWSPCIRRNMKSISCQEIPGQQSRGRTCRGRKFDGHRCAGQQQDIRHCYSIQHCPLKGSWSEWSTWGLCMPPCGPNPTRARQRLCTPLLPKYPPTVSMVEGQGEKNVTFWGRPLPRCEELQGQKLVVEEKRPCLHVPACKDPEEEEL

Binder | Hemolytic assay IC50 (nM), 10% serum (Human Factor P [1]) [nM] | MAC Deposition, 20% Serum EC50 (Human Factor P [1]) [nM] | Zymosan-C3b IC50 (nM), 10% serum (Human Factor P [1]) [nM] | Hemolytic assay IC50 (nM), 10% serum (Cynomolgus Factor P [2]) [nM] | MAC Deposition, 20% Serum EC50 (Cynomolgus Factor P [2]) [nM] | Zymosan-C3b IC50 (nM), 10% serum (Cynomolgus Factor P [2]) [nM] | Kd (Human Factor P [3]) [nM] | Kd (Cynomolgus Factor P [4]) [nM] | Kd (Human Factor P [5]) [nM] | koff (Human Factor P [5]) [s⁻¹] | kon (Human Factor P [5]) [M⁻¹ s⁻¹] | Kd (Cynomolgus Factor P [6]) [nM] | koff (Cynomolgus Factor P [6]) [s⁻¹] | kon (Cynomolgus Factor P [6]) [M⁻¹ s⁻¹] | Inhibition of C3a generation, 20% human serum (Human Factor P [1]) [nM]
NVS965-T (Fab, V domains shown, NVS965 with heavy chain N30 replaced with threonine) VH: EVQLVQSGAEVKKPGSSVKVSCKASGGTFTSYAISWVRQAPGQGLEWMGRIIPIFGTANYAQKFQGRVTITADESTSTAYMELSSLRSEDTAVYYCARHGGYSFDSWGQGTLVTVSS VL: SYVLTQPPSVSVAPGKTARISCSGDNLGSKYVDWYQQKPGQAPVLVIYSDNNRPSGIPERFSGSNSGNTATLTISGTQAMDEADYYCATYDSSPRTEVFGGGTKLTVLG | 7.15 | 13.8 | 0.77 | 12.5 | 11 | 1.91 | 0.052 | 0.044 | 0.0514 | 0.000103 | 2.37e+06 | 0.0746 | 0.000151 | 2.17e+06 | 
NVS963 (Fab, V domains shown, Disulfide-bridged Fab; also called Fab NVS963) VH: EVQLVQSGAEVKKPGSSVKVSCKASGGTFSSYAISWVRQAPGQGLEWMGPINPYYGDAIYAQKFQGRVTITADESTSTAYMELSSLRSEDTAVYYCARYYSDYMDYWGQGTLVTVSS VL: QSVLTQPPSVSGAPGQRVTISCTGSSSNIGAGYDVHWYQQLPGTAPKLLIHDNSHRPSGVPDRFSGSKSGTSASLAITGLQSEDEADYYCASYDESAHSVFGGGTKLTVLG | 10.1 |  | 2.34 | 14.5 |  | 9.75 | 0.055 | 0.115 | 0.09 | 0.0001 | 1e+06 | 0.17 | 0.0002 | 1e+06 | 65.1
NVS966 (Fab, V domains shown, Disulfide-bridged Fab; also called Fab NVS966) VH: EVQLVQSGAEVKKPGESLKISCKGSGYSFTNYWIGWVRQMPGKGLEWMGRIDPGESLTNYAPSFQGQVTISADKSISTAYLQWSSLKASDTAMYYCARTGVADVDMPFAHWGQGTLVTVSS VL: SYVLTQPPSVSVAPGKTARISCSGDNLGSYYVNWYQQKPGQAPVLVIYGDSERPSGIPERFSGSNSGNTATLTISRAQAGDEADYYCGSWDITSFVFGGGTKLTVLG | 7.15 |  | 1.66 | 13 |  | 6.62 | 0.07 | 0.04 | 0.16 | 0.0003 | 2e+06 | 0.21 | 0.0002 | 1e+06 | 41.1
NVS964 (Fab, V domains shown, Disulfide-bridged Fab; also called Fab NVS964) VH: EVQLVQSGAEVKKPGASVKVSCKASGYTFTSHYMHWVRQAPGQGLEWMGKINADLGDTNYAQKFQGRVTMTRDTSISTAYMELSSLRSEDTAVYYCARDGIEHGGHYYWGYLFDIWGQGTLVTVSS VL: SYELTQPPSVSVAPGQTARISCSGDSIREYYVHWYQQKPGQAPVLVIGDDTNRPSGIPERFSGSNSGNTATLTISGTQAEDEADYYCAAWDFSPAIVFGGGTKLTVLG | 9.26 |  | 1.54 | 13.4 |  | 6.59 | 0.02 | 0.19 | 0.035 | 4e-05 | 1e+06 | 0.16 | 0.0002 | 1e+06 | 42.2
NVS967 (Fab, V domains shown, Disulfide-bridged Fab; also called Fab NVS967) VH: EVQLVQSGAEVKKPGASVKVSCKASGYTFTSHYMHWVRQAPGQGLEWMGNINPVDGGTEYAQKFQGRVTMTRDTSISTAYMELSSLRSEDTAVYYCARDGIEHGGHYYWGYLFDIWGQGTLVTVSS VL: SYVLTQPPSVSVAPGKTARISCSGDSIREYYVHWYQQKPGQAPVLVIGDDTNRPSGIPERFSGSNSGNTATLTISRAQAGDEADYYCAAWDFSPAIVFGGGTKLTVLG | 9.61 |  | 2.53 | 14 |  | 5.92 | 0.04 | 0.28 | 0.06 | 9e-05 | 1e+06 | 0.315 | 0.0006 | 1e+06 | 43.5
